According to a protein production outcome set (Wang et al. 2014):

Assay: label from the status in PepcDB records

Row | Sequence | protein production
1 | MLIKSIKLTNILSFGEAAETIELRPLNVVIGPNGSGKSNLIAAIELFRALPKDAPAFFRREGGIHDWLWKGGEIPPVATIESVFDEKGPLSGLRYALRFTVVGQHFEIIEERIEEEAAEGAQTPPPYHFKDGRGALRALLANEGEIKAWSFVIPSEIDPTQSILAQRKDPHQYPELTSLGAVLPTMRCYREWTMGPQSPPRQDQKTDLRNDYLDPYGAGNLALVLQRLGNKPALKKRFLEALRLLYEGIDDYGVTIEGGTSQIFFHEGGRFTIPASRLSDGTLRYLCLLAILLDPAPPPLLCIEEPELGLHPDILPTLADLLKEASERTQVIVTTHSDGLVDAMTDRPEAVLIAEKNENGTTLTRLDGETLKPWLAKYRLGELWTRGGIGGTRWLEHHHHHH | failed
2 | MLILLPDFIGHPSCFRGLLARLGATDCRLVDYHRLDAYASIEALASQVLDGLAEEPDWLIGYSFGGLVGYEMARQLPASRLLMIDSHLPWPALRRMPPSEQYQRWLSAEMREWIALMSELGELREEVLLRNVELFGRWQPRHRLARASWVRCRDDAGRDPAAERWCDLIERLDTFPCERPHHLALQDPAVIDFIVHTVSK | failed
3 | MLIPHDLLEADTLNNLLEDFVTREGTDNGDETPLDVRVERARHALRRGEAVILFDPESQQCQLMLRSEVPAELLRD | not failed
4 | MLIPQQKELNSISLLAEVSRTVTNENDISKVLRIVLFIMSEHLDMLRGMITILNRETGEITTNESFGLTEEEMERGRYRIGEGIIGQVVKTGKPFIVPNIGDEPLFLDRTRSRQKTKKENLCFICIPIRSGAEIIGTLSADRQLEPSLLKESGKRMKAEDERMDLLQHYVDLLSIIASMISQAVRLKQIAHEATAGIAVVEHKPQQEK | failed
5 | MLIQDLSHKNIKDYTSIYGEEYINRIVEKAEKLRDITLTHVNSTSLGGGVAEILYSLVPLMNSIGITTRWEVIKGGNEFFNVTKKIHNALQGAEIDLSDEEKRIYLENNKWNVENELVLDSTHIVVHDPQPLPIRKFAENNKKWIWRCHIDLSTPYKPVWLFISQLLRGYEASIFHLKEYIHPETPTPIKYVMPPSIDPLSDKNKELSWSTIEKILNRYGIDPEKPILLQVARFDPWKDPFAAIDVYRLVKKEFPDTQLLLVTSMATDDPEGWIYYEKTLKYAGMDEDIFILTNLKNVGTLEVNAFQRAATVVLQMSRREGFGLAVTEALWKRKPVVARPRGGIKLQVIDGVTGHLAETVEEAAKKTIYLIKNPQKRKELGENGYKHVLKHFTIVRHIENYLDLLAKIV | failed
6 | MLISALIVMVITYCLIISRSITKIPPWASMFFGGILMVILGIISPEEALQSINLDVILFLITLFTFASALEVSGFLKFLAYKIIEKFKEPRKVLFYILLYSGLLSNLVTNDGVSASWTPVILELSRMIGVSEVPFLYALAVGVTIGSVIMPTGNPQNLLIALESGIKNPFITFTIYLTLPSIISLIIAYFILFRLFRKSLSLPSGINIKKEEEEKVDFDRRLGYLTLTLLVVTIILFFSLSFFKIDILLGSLVTSSILLLLTEKRRDIVRRMDWPTILFFIGLFIFTDGVLKSGIIQYLSNFLPPPDSVASIMIVSILLSQVLSNVPLVAIYIPIMISHSGITVVDWLALAAGSTIAGNFTILGAASNVIISEASESRGGKGFNFVEFMKYTIPILIPNAIIIYLFLVLFR | failed
7 | MLISIAFLLVLYLLNYSSFRMLKSFLTLKKISQYAYLWFFILLSIGEAAFVFYRNIMPSHLFVLTSACSFVSFIIFILSLSFYGFSYSIEKIDFLHSRRKSLKNFLKLGFYLALLGYFWRGFYEGLARPKIKETPIYLDKLDKELKIILLTDMHVGSLLQKDFVDYIVEEVNQKEVDMVLIGGDLVDESIEKVKSFLLPLNNLKSTHGTFYVPGNHEYYHGIEPILSFLDTLNLTILGNECVHLGGINLCGVYDYFARKRQNFAPDIDKALKKRNESKPTILLAHQPKQIRSLKESHSVDLVLSGHTHAGQIFPFSLLVKLAQTYLHGLYKHSPTTQIYVSSGAGYWGIPLRFLAPSEIAYLRLLPKNQA | failed
8 | MLITSSLLPPSGTWIFNINSLFCSLSIKNALSNLPLMRFCNSSTTQHTSTLVISLFIISPENIIFFFRIFYYCDNMEREEFLKYLRQGKYDKLAKLINSYSDILSFLDELFTSNKKDDVRRALLVLKRLDNEVIERYLYYILLNLNEKRIIAKEAEEILKKITNKESVEEAILEIAKKPLDEKIVYLFLQNMKEGNIFFRAILEHTKSKNMEESIKILLKNYNSEMILKILANKLYSSEKDERELTINILLNIVDSLTDEQKNILRGHLSVSLLGDEDKKLYRKFKQLFEKLDIPAELSDEQIKSLLKSHGKTTLNIILRENIKLPANFYNREFLKDFLYTGDEEKQFVGVKLISLKKDSKKKVDLLFRFLNYGYGKAKTAAIRELKKIAQNNNELKKYIENKTLMYAKKMNLGLKISSLRILKEFAKKEHLEFLINEHKRLKELVYKLEEEKFMGGFRHLLMMEEEIRKCNVAMRLIEEIVAEICLKNDIHYNDLKISEKLGYEFYRTMELIGVKNLNLIDIHEFLEDVKRDGELITYLSGIVINNNKIDDNLAKKILEVTEKAEMEDKDVLNANKIMIYASLNRVDKIGEIINMAEGYYSKLAFINGVKKFIDEKLLDEEKINLLIPKIAEMIYSTKKLRLMALEFFKNYPNELVLPILINEIGNYRGEDKLMIDVISNVIFKYPNNIHSIRELLNTDKRNSALKILLKVSEKRPELLEDFIYLLAGMYSSANEEDKKLIKKILKNITTEEQKLILKPIIGDL | failed
9 | MLITVYCVRRDLTEVTFSLQVNPDFELSNFRVLCELESGVPAEEAQIVYMEQLLTDDHCSLGSYGLKDGDMVVLLQKDNVGLRTPGRTP | not failed
10 | MLKALKKIFGKADGTQPQSGSSPVPQGPAGATAKGTAPTGEKPTEKRPRKPRPPRADNESGAPRAAEKAEKAEKPAKPAGKEGRDAKPRTDKPRRERKPKPVDNWKLEDFVVEPQEGKTRFHDFNLAPSLMHAIHDLGFPYCTPIQAQVLGFTLRGQDAIGRAQTGTGKTAAFLISIITQLLQTPPPKERYMGEPRALIIAPTRELVVQIAKDAAALTKYTGLNVMTFVGGMDFDKQLKQLEARFCDILVATPGRLLDFNQRGEVHLDMVEVMVLDEADRMLDMGFIPQVRQIIRQTPHKGERQTLLFSATFTDDVMNLAKQWTVDPAIVEIEPENVASDTVEQHVYAVAGSDKYKLLYNLVAQNNWERVMVFANRKDEVRRIEERLTKDGISAAQMSGDVPQHKRIRTLEGFREGKIRVLVATDVAGRGIHIDGISHVINFTLPEDPDDYVHRIGRTGRAGASGTSISFAGEDDAFALPPIEELLGRKITCEMPPAELLKPVPRKH | failed
11 | MLKANVFCAGPVEALILDWAGTTIDFGSLAPVYAFMELFKQEGIEVTQAEAREPMGTEKSEHIRRMLGNSRIANAWLSIKGQASNEEDIKRLYDLFAPIQTRIVAQRSQLIPGWKEVFDKLIAQGIKVGGNTGYGPGMMAPALIAAKEQGYTPASTVFATDVVRGRPFPDMALKVALELEVGHVNGCIKVDDTLPGIEEGLRAGMWTVGVSCSGNEVGLDREDWQALSSDEQQSYRQHAEQRLFNAGAHYVIDSVADLETVITDVNRRLARGEKP | not failed
12 | MLKERILSAIAMIIAVLAGIFLLSPLPFTLILAAVITAAIWEWAQFAGFKRSLSRAIITFVTICLFILLIFANTHYIRAGRFLTDQTIPLLFISCCWWLIAFGLVISYPKSASLWSKSITAKFIFGFCTLIPFFIAILALRFNNYAFNQFQGAYLLLYVCLLVWCADSGAYFFGRAFGKRKLAAKVSPSKSWEGALGGLITSCVMALLFIKLTPNNIFGREFETLPFIIVSVATVAVSSLGDLAESMFKRQANIKDSSNLIPGHGGILDRIDSLTAAIPFFATLFFFVL | failed
13 | MLKFLKNWTLPIAMLVGAVGYPVFISFSFLTPILIFTMLLLTFCKVSPRDLKPKPLHLWLLLIQIFGSLIVYLLLYRFNKIVAEGAMVCVICPTATAAAVITSKLGGSAASLTTYTLIANIGAAIAVPILFPLIEANPGISFIDAFLVILSKVFPLLICPFLAAWFLQRFIPKVHKVLLGYHELAFYLWGISLAIVTAQTLYSLINDPADGLTEIMIAVVALIACCLQFFLGKTLGSIYNDRISGGQALGQKNTILAIWMAHTYLNPLSAVGPGSYVLWQNIINSWQLWKKRKKESEKCSNNVSG | failed
14 | MLKFLSVRVEDHIAVATLNHAPANAMSSQVMHDVTELIDQVEKDDNIRVVVIHGEGRFFSAGADIKEFTSVTEAKQATELAQLGQVTFERVEKCSKPVIAAIHGAALGGGLEFAMSCHMRFATESAKLGLPELTLGLIPGFAGTQRLPRYVGKAKACEMMLTSTPITGAEALKWGLVNGVFAEETFLDDTLKVAKQIAGKSPATARAVLELLQTTKSSHYYEGVQREAQIFGEVFTSEDGREGVAAFLEKRKPSFSGR | not failed
